{"source": "patent US20240084023A1", "about": "(NGM BIOPHARMACEUTICALS, published 2024)", "binders": {"B1": {"name": "anti-GCGR antibody Hz6B5 (antibody, V domains shown)", "VH": "QVQLVQSGAEVKKPGSSVKVSCKASGFTFTNHWLGWVRQAPGQGLEWIGDIYPGGYYINYNEKFKGRVTITADESTSTAYMELSSLRSEDTAVYYCARHTNYGSDYWGQGTTVTVSS", "VL": "DVVMTQSPLSLPVTLGQPASISCRSSQSIVDSYGNTFLEWYQQRPGQSPRLLIYKVSNRLSGVPDRFSGSGSGTDFTLKISRVEAEDVGVYYCFQGSHVPWTFGQGTKLEIK", "notes": "Humanized 6B5"}}, "assay_in_all_cases": "flow cytometry on transfected 293XP cells", "key": {"[1]": {"molecular_target": "T1, GCGR extracellular domain alanine mutant W83A (human, UniProt P47871 26-136, limits assumed)", "T1 construct": "expressed in 293XP cells", "T1 chain": "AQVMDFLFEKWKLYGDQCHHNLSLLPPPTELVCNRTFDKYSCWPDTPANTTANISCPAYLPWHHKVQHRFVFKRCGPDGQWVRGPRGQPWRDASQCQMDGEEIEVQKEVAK", "experimental": "(§1) To assist in gathering information on the GCGR epitope that the 6B5 binning group bound to, “alanine scanning mutagenesis” was undertaken. These alanine scanning mutagenesis platform is a technique used for mapping both linear and conformational antigen epitopes by evaluating the effects of point mutations across a target protein. Single residues in a target protein are replaced by alanine one at a time to construct a mutant library. Each variant is assayed for its ability to bind to an antibody of interest. […] Amino acids across the extracellular domain of GCGR were mutated to alanine and the anti-GCGR antibody Hz6B5 was tested for binding to the alanine mutants.\n(§2) The wild-type GCGR extracellular domain and the alanine mutants were each transfected into 293XP cells and incubated for 24 hours. Antibody Hz6B5 was incubated with the transfected cells for 30 minutes at 4° C. After washing with PBS/1% BSA/0.1% azide, the cells were incubated with a labeled anti-mouse Fc antibody (Jackson Immunoresearch) for 30 minutes at 4° C. After washing with PBS/1% BSA/0.1% azide, the cells were analyzed using a flow cytometer BD (FACSCalibur instrument) and cytometric analytical software (FlowJo). A serum sample from a mouse immunized with human GCGR was used as positive control to confirm expression of the alanine mutants."}, "[2]": {"molecular_target": "T2, GCGR extracellular domain alanine mutant L38A (human, UniProt P47871 26-136, limits assumed)", "T2 construct": "expressed in 293XP cells", "T2 chain": "T1 chain with L13A, A58W", "experimental": "as §1, §2"}, "[3]": {"molecular_target": "T3, GCGR extracellular domain alanine mutant F33A (human, UniProt P47871 26-136, limits assumed)", "T3 construct": "expressed in 293XP cells", "T3 chain": "T1 chain with F8A, A58W", "experimental": "as §1, §2"}, "[4]": {"molecular_target": "T4, GCGR extracellular domain alanine mutant Y84A (human, UniProt P47871 26-136, limits assumed)", "T4 construct": "expressed in 293XP cells", "T4 chain": "T1 chain with A58W, Y59A", "experimental": "as §1, §2"}, "[5]": {"molecular_target": "T5, GCGR extracellular domain alanine mutant W106A (human, UniProt P47871 26-136, limits assumed)", "T5 construct": "expressed in 293XP cells", "T5 chain": "T1 chain with A58W, W81A", "experimental": "as §1, §2"}, "[6]": {"molecular_target": "T6, GCGR extracellular domain alanine mutant R111A (human, UniProt P47871 26-136, limits assumed)", "T6 construct": "expressed in 293XP cells", "T6 chain": "T1 chain with A58W, R86A", "experimental": "as §1, §2"}, "[7]": {"molecular_target": "T7, GCGR extracellular domain alanine mutant H45A (human, UniProt P47871 26-136, limits assumed)", "T7 construct": "expressed in 293XP cells", "T7 chain": "T1 chain with H20A, A58W", "experimental": "as §1, §2"}, "[8]": {"molecular_target": "T8, GCGR extracellular domain alanine mutant R94A (human, UniProt P47871 26-136, limits assumed)", "T8 construct": "expressed in 293XP cells", "T8 chain": "T1 chain with A58W, R69A", "experimental": "as §1, §2"}, "[9]": {"molecular_target": "T9, GCGR extracellular domain alanine mutant W36A (human, UniProt P47871 26-136, limits assumed)", "T9 construct": "expressed in 293XP cells", "T9 chain": "T1 chain with W11A, A58W", "experimental": "as §1, §2"}, "[10]": {"molecular_target": "T10, GCGR extracellular domain alanine mutant W87A (human, UniProt P47871 26-136, limits assumed)", "T10 construct": "expressed in 293XP cells", "T10 chain": "T1 chain with A58W, W62A", "experimental": "as §1, §2"}, "[11]": {"molecular_target": "T11, GCGR extracellular domain alanine mutant R108A (human, UniProt P47871 26-136, limits assumed)", "T11 construct": "expressed in 293XP cells", "T11 chain": "T1 chain with A58W, R83A", "experimental": "as §1, §2"}, "[12]": {"molecular_target": "T12, GCGR extracellular domain alanine mutant K64A (human, UniProt P47871 26-136, limits assumed)", "T12 construct": "expressed in 293XP cells", "T12 chain": "T1 chain with K39A, A58W", "experimental": "as §1, §2"}, "[13]": {"molecular_target": "T13, GCGR extracellular domain alanine mutant K90A (human, UniProt P47871 26-136, limits assumed)", "T13 construct": "expressed in 293XP cells", "T13 chain": "T1 chain with A58W, K65A", "experimental": "as §1, §2"}}, "note": "Numbering of substitutions follows the chain as printed.", "data": [{"binder": "B1", "values": [{"measurement": "% positive cells", "setting": "[1]", "result": 72.6, "unit": "%"}, {"measurement": "% positive cells", "setting": "[2]", "result": 3.3, "unit": "%"}, {"measurement": "% positive cells", "setting": "[3]", "result": 71.8, "unit": "%"}, {"measurement": "% positive cells", "setting": "[4]", "result": 63.4, "unit": "%"}, {"measurement": "% positive cells", "setting": "[5]", "result": 60.8, "unit": "%"}, {"measurement": "% positive cells", "setting": "[6]", "result": 84.5, "unit": "%"}, {"measurement": "% positive cells", "setting": "[7]", "result": 81.3, "unit": "%"}, {"measurement": "% positive cells", "setting": "[8]", "result": 0, "unit": "%"}, {"measurement": "% positive cells", "setting": "[9]", "result": 70.9, "unit": "%"}, {"measurement": "% positive cells", "setting": "[10]", "result": 74.7, "unit": "%"}, {"measurement": "% positive cells", "setting": "[11]", "result": 87, "unit": "%"}, {"measurement": "% positive cells", "setting": "[12]", "result": 87.6, "unit": "%"}, {"measurement": "% positive cells", "setting": "[13]", "result": 83, "unit": "%"}]}]}
